B1: Achaete-scute complex protein T4 (Drosophila melanogaster (Fruit fly)), P10084 (parent)
chain: MKNNNNTTKSTTMSSSVLSTNETFPTTINSATKIFRYQHIMPAPSPLIPGGNQNQPAGTMPIKTRKYTPRGMALTRCSESVSSLSPGSSPAPYNVDQSQSVQRRNARERNRVKQVNNSFARLRQHIPQSIITDLTKGGGRGPHKKISKVDTLRIAVEYIRRLQDLVDDLNGGSNIGANNAVTQLQLCLDESSSHSSSSSTCSSSGHNTYYQNTISVSPLQQQQQLQRQQFNHQPLTALSLNTNLVGTSVPGGDAGCVSTSKNQQTCHSPTSSFNSSMSFDSGTYEGVPQQISTHLDRLDHLDNELHTHSQLQLKFEPYEHFQLDEEDCTPDDEEILDYISLWQEQ
partner: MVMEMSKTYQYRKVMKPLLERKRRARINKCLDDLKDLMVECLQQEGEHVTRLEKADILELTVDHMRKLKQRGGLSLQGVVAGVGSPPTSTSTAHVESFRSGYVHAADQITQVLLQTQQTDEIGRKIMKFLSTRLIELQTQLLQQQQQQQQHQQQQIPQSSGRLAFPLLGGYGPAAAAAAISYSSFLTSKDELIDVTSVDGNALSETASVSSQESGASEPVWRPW
B2: Achaete-scute complex protein T4 (Drosophila melanogaster (Fruit fly)), P10084 (parent)
chain: B1 chain
partner: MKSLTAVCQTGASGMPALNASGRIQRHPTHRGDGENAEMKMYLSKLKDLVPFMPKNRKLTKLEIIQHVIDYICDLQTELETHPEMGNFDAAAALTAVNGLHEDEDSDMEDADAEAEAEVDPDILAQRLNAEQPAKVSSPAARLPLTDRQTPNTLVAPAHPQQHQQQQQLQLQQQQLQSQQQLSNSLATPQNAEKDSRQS

Variants of: B1
Conditions: with esm3_drome E(spl)m3-HLH

Row | effect of a mutation on the interaction | Variant
1 | increasing interaction | S340D

Variants of: B2
Conditions: with emc_drome emc

Row | effect of a mutation on the interaction | Variant
2 | decreasing interaction | S340D

Reference: IntAct's records for PubMed 9371806
